# Patent US20190367578A1 (Novo Nordisk, published 2019)
# *1 amine or outer side, *2 acyl side, *3 side chain or, on linkers, in order; H or OH if unused. Where no end group is shown, it is not given here. Side-chain parts run from the residue outwards. [ ]: non-standard residue; d: D form. The star is where a group is joined. C18 diacid = O=C(O)CCCCCCCCCCCCCCCCC(=O)*; γGlu = O=C(O)[C@H](CCC(=O)[*:2])N[*:1]; Nle = CCCC[C@H](N)C(=O)O; AEEA = NCCOCCOCC(=O)O; Aib = CC(C)(N)C(=O)O
# T1: human GIP receptor (human) (UniProt P48546)
# T1 sequence (looked up): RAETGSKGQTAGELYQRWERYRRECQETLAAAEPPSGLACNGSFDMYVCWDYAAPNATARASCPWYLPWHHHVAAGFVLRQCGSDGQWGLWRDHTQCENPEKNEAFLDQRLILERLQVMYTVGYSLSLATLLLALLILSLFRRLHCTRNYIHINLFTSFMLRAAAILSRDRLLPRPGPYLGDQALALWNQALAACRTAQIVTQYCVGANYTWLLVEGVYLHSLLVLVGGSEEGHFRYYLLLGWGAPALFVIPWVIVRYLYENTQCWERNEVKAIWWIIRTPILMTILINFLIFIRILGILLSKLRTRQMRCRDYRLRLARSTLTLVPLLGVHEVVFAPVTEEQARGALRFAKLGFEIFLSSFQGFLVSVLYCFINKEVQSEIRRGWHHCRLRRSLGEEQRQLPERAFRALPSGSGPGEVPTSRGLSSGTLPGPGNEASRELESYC
# Target: T1, human GIP receptor (human)
# Experiment: cell-based or functional assay
row,Binder,"EC50 (pM), hGIP-R CRE Luc, 0.2% HSA"
1,Y[Aib]EGTFISDYSIA[Nle]DKIRQQDFVK([γGlu-γGlu-γGlu-C18 diacid])WLLAQKGKENDWKHNITQ,20.1 pM
2,Y[Aib]EGTFISDYSIA[Nle]DKIRQQDFVK([γGlu-γGlu-γGlu-C18 diacid])WLLAQKGKEEDWKHNITQ,4.47 pM
3,Y[Aib]EGTFISDYSIA[Nle]DKIHQQDFVK([γGlu-γGlu-γGlu-C18 diacid])WLLAQKGKEEDWKHNITQ,9 pM
4,Y[Aib]EGTFISDYSIA[Nle]DKIHQQDFVK([AEEA-AEEA-γGlu-C18 diacid])WLLAQKGKEDDWKHNITQ,5.97 pM
5,Y[Aib]EGTFISDYSIALDKIHQQDFVK([AEEA-AEEA-γGlu-C18 diacid])WLLAQKGKKNDWKHNITQ,56 pM

# Further lines, results first:
row,"EC50 (pM), hGIP-R CRE Luc, 0.2% HSA",Binder
1,5.45 pM,Y[Aib]EGTFISDYSIA[Nle]DKIHQQDFVK([AEEA-AEEA-γGlu-C18 diacid])WLLAQKGKEEDWKHNITQ
2,5.9 pM,Y[Aib]EGTFISDYSIA[Nle]DKIHQQDFVK([γGlu-γGlu-γGlu-C18 diacid])WLLAQKGKEDDWKHNITQ
3,4.12 pM,Y[Aib]EGTFISDYSIA[Nle]DKIRQQDFVK([AEEA-AEEA-γGlu-C18 diacid])WLLAQKGKEEDWKHNITQ

# Target: human GLP-1 receptor (human) (UniProt P43220)
# Sequence (P43220 24-463): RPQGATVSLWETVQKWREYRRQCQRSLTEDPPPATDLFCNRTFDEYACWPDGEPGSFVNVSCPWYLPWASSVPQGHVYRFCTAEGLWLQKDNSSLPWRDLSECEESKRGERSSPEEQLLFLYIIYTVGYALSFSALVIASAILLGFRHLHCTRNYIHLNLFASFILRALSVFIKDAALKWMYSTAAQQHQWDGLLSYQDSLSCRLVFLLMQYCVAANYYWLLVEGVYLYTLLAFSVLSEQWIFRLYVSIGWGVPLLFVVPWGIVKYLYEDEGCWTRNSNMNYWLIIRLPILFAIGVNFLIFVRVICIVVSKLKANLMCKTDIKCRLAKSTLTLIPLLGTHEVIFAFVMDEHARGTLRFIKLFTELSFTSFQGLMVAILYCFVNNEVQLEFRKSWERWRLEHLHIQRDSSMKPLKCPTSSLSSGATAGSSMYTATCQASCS
# Experiment: cell-based or functional assay
Binder,"EC50 (pM), hGLP-1-R CRE Luc, 1% HSA (footnote *)","EC50 (pM), hGLP-1-R CRE Luc, 0.2% HSA"
Y[Aib]EGTFISDYSIA[Nle]DKIRQQDFVK([γGlu-γGlu-γGlu-C18 diacid])WLLAQKGKENDWKHNITQ,> 100000 pM,
Y[Aib]EGTFISDYSIA[Nle]DKIRQQDFVK([γGlu-γGlu-γGlu-C18 diacid])WLLAQKGKEEDWKHNITQ,,> 100000 pM
Y[Aib]EGTFISDYSIA[Nle]DKIHQQDFVK([γGlu-γGlu-γGlu-C18 diacid])WLLAQKGKEEDWKHNITQ,,> 100000 pM
Y[Aib]EGTFISDYSIA[Nle]DKIHQQDFVK([AEEA-AEEA-γGlu-C18 diacid])WLLAQKGKEDDWKHNITQ,,> 100000 pM
Y[Aib]EGTFISDYSIALDKIHQQDFVK([AEEA-AEEA-γGlu-C18 diacid])WLLAQKGKKNDWKHNITQ,> 100000 pM,

# Further lines, results first:
"EC50 (pM), hGLP-1-R CRE Luc, 1% HSA (footnote *)","EC50 (pM), hGLP-1-R CRE Luc, 0.2% HSA",Binder
,> 100000 pM,Y[Aib]EGTFISDYSIA[Nle]DKIHQQDFVK([AEEA-AEEA-γGlu-C18 diacid])WLLAQKGKEEDWKHNITQ
,> 100000 pM,Y[Aib]EGTFISDYSIA[Nle]DKIHQQDFVK([γGlu-γGlu-γGlu-C18 diacid])WLLAQKGKEDDWKHNITQ
,> 100000 pM,Y[Aib]EGTFISDYSIA[Nle]DKIRQQDFVK([AEEA-AEEA-γGlu-C18 diacid])WLLAQKGKEEDWKHNITQ

# Target: human glucagon receptor (human) (UniProt P47871)
# Sequence (P47871 26-477): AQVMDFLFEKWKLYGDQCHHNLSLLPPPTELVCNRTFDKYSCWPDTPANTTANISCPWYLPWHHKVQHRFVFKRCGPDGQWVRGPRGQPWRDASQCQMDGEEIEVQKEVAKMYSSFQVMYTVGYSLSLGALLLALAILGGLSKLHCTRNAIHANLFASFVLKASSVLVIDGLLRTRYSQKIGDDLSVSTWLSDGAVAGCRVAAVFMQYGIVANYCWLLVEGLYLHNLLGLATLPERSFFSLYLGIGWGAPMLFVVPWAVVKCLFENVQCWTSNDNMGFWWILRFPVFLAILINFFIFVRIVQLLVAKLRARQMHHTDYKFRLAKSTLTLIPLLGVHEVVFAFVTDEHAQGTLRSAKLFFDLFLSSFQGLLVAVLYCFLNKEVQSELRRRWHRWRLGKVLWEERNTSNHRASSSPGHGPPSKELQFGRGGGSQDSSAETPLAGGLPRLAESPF
# Experiment: cell-based or functional assay
Binder,"EC50 (pM), hGcg-R CRE Luc, 1% HSA (footnote *)","EC50 (pM), hGcg-R CRE Luc, 0.2% HSA"
Y[Aib]EGTFISDYSIA[Nle]DKIRQQDFVK([γGlu-γGlu-γGlu-C18 diacid])WLLAQKGKENDWKHNITQ,> 100000 pM,
Y[Aib]EGTFISDYSIA[Nle]DKIRQQDFVK([γGlu-γGlu-γGlu-C18 diacid])WLLAQKGKEEDWKHNITQ,,> 100000 pM
Y[Aib]EGTFISDYSIA[Nle]DKIHQQDFVK([γGlu-γGlu-γGlu-C18 diacid])WLLAQKGKEEDWKHNITQ,,> 100000 pM
Y[Aib]EGTFISDYSIA[Nle]DKIHQQDFVK([AEEA-AEEA-γGlu-C18 diacid])WLLAQKGKEDDWKHNITQ,,> 100000 pM
Y[Aib]EGTFISDYSIALDKIHQQDFVK([AEEA-AEEA-γGlu-C18 diacid])WLLAQKGKKNDWKHNITQ,> 100000 pM,

# Other lines, results leading:
"EC50 (pM), hGcg-R CRE Luc, 1% HSA (footnote *)","EC50 (pM), hGcg-R CRE Luc, 0.2% HSA",Binder
,> 100000 pM,Y[Aib]EGTFISDYSIA[Nle]DKIHQQDFVK([AEEA-AEEA-γGlu-C18 diacid])WLLAQKGKEEDWKHNITQ
,> 100000 pM,Y[Aib]EGTFISDYSIA[Nle]DKIHQQDFVK([γGlu-γGlu-γGlu-C18 diacid])WLLAQKGKEDDWKHNITQ
,> 100000 pM,Y[Aib]EGTFISDYSIA[Nle]DKIRQQDFVK([AEEA-AEEA-γGlu-C18 diacid])WLLAQKGKEEDWKHNITQ

# Target: human glucagon receptor (human, UniProt P47871 26-477)
# Sequence (P47871 26-477): as the sequence (P47871 26-477) above
# Experiment: cell-based or functional assay
row,"EC50 (pM), hGcg-R CRE Luc, 0.2% HSA",Binder
1,> 100000 pM,H-YAEGTFISDYSIAMDKIHQQDFVNWLLAQKGKKNDWKHNITQ-OH [hGIP(1-42)]
